Assay results taken from the supplement of paper PMC10065799, “High-throughput profiling of sequence recognition by tyrosine kinases and SH2 domains using bacterial peptide display” (eLife, 2023).

Experiments:
[1] = molecular target: c-Src SH2; experiment: SH2 binding enrichment of the phosphorylated peptide, bacterial display (enrichment ratio); higher = better substrate or ligand; peptides without Tyr show the background
[2] = molecular target: Grb2 SH2 (UniProt P62993); experiment: as above
[3] = molecular target: SHP2-C SH2; experiment: as above
[4] = molecular target: EPHB2 (UniProt P29323); experiment: phosphorylation enrichment, bacterial display (enrichment ratio); higher = better substrate or ligand; peptides without Tyr show the background
[5] = system: AncSZ; experiment: as above
[6] = molecular target: FGFR1 (UniProt P11362); experiment: as above
[7] = molecular target: Jak2 (UniProt O60674); experiment: as above
[8] = molecular target: MERTK (UniProt Q12866); experiment: as above
[9] = system: c-Abl (mouse); experiment: as above
[10] = system: c-Src; experiment: as above
[11] = molecular target: EPHB1 (UniProt P54762); experiment: as above
[12] = system: Fer (mouse); experiment: as above
[13] = molecular target: FGFR3 (UniProt P22607); experiment: as above
[14] = molecular target: Fyn (UniProt P06241); experiment: as above
[15] = molecular target: Fes (UniProt P07332); experiment: as above
[16] = molecular target: Hck (UniProt P08631); experiment: as above
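Wherever SH2 binding enrichment of the phosphorylated peptide, bacterial display is given: peptide library displayed on the E. coli surface as eCPX fusions, selected cells deep-sequenced, score is each peptide's frequency after selection divided by its frequency in the input.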
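Wherever phosphorylation enrichment, bacterial display is given: 11-residue human phosphosite peptides and single-mutation variants displayed on the E. coli surface, counted by deep sequencing, each peptide's frequency after selection divided by its frequency in the unselected input library; frequency after pTyr selection over input frequency; kinase dosed for 20-30% of maximal phosphorylation in three min.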

Fyn, sequence (P06241 whole entry, looked up): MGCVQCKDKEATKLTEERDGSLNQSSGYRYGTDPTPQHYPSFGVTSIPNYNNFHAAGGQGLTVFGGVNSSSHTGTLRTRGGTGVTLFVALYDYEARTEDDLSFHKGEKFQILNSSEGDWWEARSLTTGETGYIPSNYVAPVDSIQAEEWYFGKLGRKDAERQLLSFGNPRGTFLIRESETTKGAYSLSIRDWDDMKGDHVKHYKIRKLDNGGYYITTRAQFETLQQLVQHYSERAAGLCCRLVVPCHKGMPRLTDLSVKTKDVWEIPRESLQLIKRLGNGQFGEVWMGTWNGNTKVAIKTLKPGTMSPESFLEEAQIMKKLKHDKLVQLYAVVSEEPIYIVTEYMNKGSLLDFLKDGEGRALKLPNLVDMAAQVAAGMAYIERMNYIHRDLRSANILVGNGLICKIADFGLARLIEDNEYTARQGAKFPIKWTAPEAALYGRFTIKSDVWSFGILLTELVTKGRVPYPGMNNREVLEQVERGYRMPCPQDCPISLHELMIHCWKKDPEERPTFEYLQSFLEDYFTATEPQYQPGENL
FGFR3, sequence (P22607 whole entry, looked up): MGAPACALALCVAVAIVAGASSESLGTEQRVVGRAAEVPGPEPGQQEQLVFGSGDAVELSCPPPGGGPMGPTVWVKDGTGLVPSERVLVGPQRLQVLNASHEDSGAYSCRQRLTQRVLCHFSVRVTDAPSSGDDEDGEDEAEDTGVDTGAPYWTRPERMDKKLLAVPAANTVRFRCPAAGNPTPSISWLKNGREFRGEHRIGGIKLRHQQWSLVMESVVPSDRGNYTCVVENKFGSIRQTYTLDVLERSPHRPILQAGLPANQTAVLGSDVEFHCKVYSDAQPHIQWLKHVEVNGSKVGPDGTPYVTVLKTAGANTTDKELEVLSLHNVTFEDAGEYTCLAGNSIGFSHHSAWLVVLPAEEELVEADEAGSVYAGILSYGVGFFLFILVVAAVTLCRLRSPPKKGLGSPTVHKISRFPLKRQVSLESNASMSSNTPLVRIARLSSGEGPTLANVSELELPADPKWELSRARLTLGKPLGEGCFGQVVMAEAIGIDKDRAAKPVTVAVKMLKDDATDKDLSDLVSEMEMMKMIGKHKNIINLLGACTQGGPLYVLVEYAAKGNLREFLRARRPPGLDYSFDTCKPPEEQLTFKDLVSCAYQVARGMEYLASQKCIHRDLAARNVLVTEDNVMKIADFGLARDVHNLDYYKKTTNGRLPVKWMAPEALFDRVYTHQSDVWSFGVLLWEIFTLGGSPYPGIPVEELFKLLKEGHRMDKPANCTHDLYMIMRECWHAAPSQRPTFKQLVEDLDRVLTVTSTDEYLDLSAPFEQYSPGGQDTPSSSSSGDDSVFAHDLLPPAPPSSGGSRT
Grb2 SH2, sequence (P62993 whole entry, looked up): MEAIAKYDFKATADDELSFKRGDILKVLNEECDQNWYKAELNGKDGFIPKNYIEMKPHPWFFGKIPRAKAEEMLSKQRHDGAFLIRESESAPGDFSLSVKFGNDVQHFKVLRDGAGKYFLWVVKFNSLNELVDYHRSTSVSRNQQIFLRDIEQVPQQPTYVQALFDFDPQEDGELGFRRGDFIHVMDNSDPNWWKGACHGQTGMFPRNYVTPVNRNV
Fes, sequence (P07332 whole entry, looked up): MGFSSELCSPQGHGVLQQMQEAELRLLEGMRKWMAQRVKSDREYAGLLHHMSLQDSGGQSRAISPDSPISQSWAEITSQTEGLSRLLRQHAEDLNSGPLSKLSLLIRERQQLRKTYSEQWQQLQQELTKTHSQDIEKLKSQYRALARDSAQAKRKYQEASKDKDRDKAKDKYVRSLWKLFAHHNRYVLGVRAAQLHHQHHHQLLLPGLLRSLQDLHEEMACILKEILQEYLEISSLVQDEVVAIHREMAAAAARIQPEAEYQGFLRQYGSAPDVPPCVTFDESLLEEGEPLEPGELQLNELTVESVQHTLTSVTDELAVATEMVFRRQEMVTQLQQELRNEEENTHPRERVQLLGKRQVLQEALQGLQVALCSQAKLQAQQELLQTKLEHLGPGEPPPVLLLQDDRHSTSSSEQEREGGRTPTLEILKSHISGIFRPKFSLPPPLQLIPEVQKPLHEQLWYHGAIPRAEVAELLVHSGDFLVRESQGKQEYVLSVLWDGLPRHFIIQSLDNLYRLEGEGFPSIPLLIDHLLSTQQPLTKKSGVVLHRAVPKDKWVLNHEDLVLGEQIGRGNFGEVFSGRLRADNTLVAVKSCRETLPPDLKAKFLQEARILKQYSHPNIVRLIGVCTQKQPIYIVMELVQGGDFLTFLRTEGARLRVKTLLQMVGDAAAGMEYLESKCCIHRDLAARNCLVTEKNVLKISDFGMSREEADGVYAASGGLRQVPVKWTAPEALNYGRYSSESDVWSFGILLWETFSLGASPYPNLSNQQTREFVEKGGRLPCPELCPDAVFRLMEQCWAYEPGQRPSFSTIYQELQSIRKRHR
Jak2, sequence (O60674 whole entry, looked up): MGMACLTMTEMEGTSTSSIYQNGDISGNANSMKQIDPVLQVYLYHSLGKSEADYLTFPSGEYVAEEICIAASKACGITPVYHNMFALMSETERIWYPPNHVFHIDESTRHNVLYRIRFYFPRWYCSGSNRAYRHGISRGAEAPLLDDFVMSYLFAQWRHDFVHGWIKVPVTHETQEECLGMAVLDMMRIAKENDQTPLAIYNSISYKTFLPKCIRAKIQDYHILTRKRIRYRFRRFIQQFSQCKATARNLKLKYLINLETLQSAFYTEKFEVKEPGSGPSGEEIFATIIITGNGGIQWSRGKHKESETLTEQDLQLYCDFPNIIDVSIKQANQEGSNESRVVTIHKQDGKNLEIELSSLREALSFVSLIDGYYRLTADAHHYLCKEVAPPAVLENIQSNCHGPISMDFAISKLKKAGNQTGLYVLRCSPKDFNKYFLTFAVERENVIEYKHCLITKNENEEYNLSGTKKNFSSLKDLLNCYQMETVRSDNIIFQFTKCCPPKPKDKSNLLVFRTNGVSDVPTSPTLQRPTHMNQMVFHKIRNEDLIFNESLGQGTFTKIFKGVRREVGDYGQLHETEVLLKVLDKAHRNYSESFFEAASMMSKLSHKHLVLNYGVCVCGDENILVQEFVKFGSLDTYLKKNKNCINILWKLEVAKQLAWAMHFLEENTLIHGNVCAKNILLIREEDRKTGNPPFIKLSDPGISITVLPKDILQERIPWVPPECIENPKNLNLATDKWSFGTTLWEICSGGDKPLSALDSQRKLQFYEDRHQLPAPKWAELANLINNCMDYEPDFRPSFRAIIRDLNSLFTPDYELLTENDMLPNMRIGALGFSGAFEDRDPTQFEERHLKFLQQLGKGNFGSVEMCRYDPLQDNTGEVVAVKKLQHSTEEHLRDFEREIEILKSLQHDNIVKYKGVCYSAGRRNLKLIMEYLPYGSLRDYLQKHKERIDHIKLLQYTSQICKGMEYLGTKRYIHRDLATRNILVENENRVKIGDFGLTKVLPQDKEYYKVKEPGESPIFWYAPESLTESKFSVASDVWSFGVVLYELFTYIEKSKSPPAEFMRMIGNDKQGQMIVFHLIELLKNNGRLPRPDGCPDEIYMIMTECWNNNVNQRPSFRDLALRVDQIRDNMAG
MERTK, sequence (Q12866 whole entry, looked up): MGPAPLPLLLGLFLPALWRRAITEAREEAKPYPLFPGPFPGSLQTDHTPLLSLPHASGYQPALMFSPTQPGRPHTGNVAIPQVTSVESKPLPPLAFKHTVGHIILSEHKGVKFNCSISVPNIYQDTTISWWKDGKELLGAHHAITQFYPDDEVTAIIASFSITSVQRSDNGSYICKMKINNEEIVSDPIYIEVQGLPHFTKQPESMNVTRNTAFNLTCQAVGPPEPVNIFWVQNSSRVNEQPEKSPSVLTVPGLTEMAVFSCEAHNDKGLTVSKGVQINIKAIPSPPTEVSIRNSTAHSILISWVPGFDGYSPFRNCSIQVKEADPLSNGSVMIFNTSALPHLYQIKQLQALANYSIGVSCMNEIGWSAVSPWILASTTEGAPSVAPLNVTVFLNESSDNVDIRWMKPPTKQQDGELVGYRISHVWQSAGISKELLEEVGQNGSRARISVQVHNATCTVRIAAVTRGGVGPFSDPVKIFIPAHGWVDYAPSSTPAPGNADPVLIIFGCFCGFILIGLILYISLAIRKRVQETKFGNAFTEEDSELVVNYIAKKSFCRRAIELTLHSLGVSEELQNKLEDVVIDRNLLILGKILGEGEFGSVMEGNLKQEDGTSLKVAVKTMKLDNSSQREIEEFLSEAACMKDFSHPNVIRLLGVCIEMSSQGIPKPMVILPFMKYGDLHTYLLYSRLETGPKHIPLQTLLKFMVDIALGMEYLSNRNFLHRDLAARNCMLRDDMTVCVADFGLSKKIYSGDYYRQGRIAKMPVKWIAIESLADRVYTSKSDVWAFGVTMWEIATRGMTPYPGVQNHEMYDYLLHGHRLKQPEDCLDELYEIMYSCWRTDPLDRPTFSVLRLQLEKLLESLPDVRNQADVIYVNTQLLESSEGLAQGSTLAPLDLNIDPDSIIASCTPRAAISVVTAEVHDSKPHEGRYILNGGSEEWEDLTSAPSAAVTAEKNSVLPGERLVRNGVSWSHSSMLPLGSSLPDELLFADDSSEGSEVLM
Hck, sequence (P08631 whole entry, looked up, the tested form may be a part): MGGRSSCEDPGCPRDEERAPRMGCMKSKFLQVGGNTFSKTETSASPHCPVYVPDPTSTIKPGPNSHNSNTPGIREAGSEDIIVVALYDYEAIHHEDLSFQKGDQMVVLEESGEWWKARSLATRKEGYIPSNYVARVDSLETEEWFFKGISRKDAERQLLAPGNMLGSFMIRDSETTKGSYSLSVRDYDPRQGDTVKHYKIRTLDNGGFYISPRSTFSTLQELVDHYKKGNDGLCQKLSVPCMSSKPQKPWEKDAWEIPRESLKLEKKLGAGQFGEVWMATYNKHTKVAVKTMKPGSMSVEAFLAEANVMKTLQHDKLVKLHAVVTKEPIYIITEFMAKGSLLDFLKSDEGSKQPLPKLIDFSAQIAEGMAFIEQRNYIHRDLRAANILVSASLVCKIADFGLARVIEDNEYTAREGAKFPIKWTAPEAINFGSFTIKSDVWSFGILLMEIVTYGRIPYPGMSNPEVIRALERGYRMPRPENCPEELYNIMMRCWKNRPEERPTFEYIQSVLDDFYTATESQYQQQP

Sequence: ETKEDYEKILV [ANXA1_Y335_G333E]
- SH2 binding enrichment [1]: 0.594
- SH2 binding enrichment [2]: 0.972
- SH2 binding enrichment [3]: 0.905
- phosphorylation enrichment [4]: 0.598
- phosphorylation enrichment [5]: 1.09
- phosphorylation enrichment [6]: 0.509
- phosphorylation enrichment [7]: 1.01
- phosphorylation enrichment [8]: 0.53
- phosphorylation enrichment [9]: 0.779
- phosphorylation enrichment [10]: 0.484
- phosphorylation enrichment [11]: 0.616
- phosphorylation enrichment [12]: 0.598
- phosphorylation enrichment [13]: 0.743
- phosphorylation enrichment [14]: 0.501
- phosphorylation enrichment [15]: 1.23
- phosphorylation enrichment [16]: 0.572

Sequence: LNWIYYKDQTG [RS1_Y166]
- SH2 binding enrichment [1]: 1.18
- SH2 binding enrichment [2]: 1.38
- SH2 binding enrichment [3]: 1.07
- phosphorylation enrichment [4]: 1.35
- phosphorylation enrichment [5]: 2.25
- phosphorylation enrichment [6]: 1.4
- phosphorylation enrichment [7]: 2.21
- phosphorylation enrichment [8]: 0.787
- phosphorylation enrichment [9]: 1.13
- phosphorylation enrichment [10]: 1.06
- phosphorylation enrichment [11]: 1.58
- phosphorylation enrichment [12]: 0.888
- phosphorylation enrichment [13]: 2
- phosphorylation enrichment [14]: 1.32
- phosphorylation enrichment [15]: 2.51
- phosphorylation enrichment [16]: 1.35

Sequence: LDLPGYCLLRE [CCDC116_Y291_P293L]
- SH2 binding enrichment [1]: 0.661
- SH2 binding enrichment [2]: 0.686
- SH2 binding enrichment [3]: 0.674
- phosphorylation enrichment [4]: 1.28
- phosphorylation enrichment [5]: 1.82
- phosphorylation enrichment [6]: 1.03
- phosphorylation enrichment [7]: 2.21
- phosphorylation enrichment [8]: 0.765
- phosphorylation enrichment [9]: 1.65
- phosphorylation enrichment [10]: 0.736
- phosphorylation enrichment [11]: 1.88
- phosphorylation enrichment [12]: 1.63
- phosphorylation enrichment [13]: 1.39
- phosphorylation enrichment [14]: 0.908
- phosphorylation enrichment [15]: 2.21
- phosphorylation enrichment [16]: 0.636

Sequence: FQRITYHNWRH [PDE6B_Y556_R552Q_YF]
- SH2 binding enrichment [1]: 1.61
- SH2 binding enrichment [2]: 1.73
- SH2 binding enrichment [3]: 1.86
- phosphorylation enrichment [4]: 0.511
- phosphorylation enrichment [5]: 0.55
- phosphorylation enrichment [6]: 0.447
- phosphorylation enrichment [7]: 0.791
- phosphorylation enrichment [8]: 0.41
- phosphorylation enrichment [9]: 0.487
- phosphorylation enrichment [10]: 0.417
- phosphorylation enrichment [11]: 0.449
- phosphorylation enrichment [12]: 0.452
- phosphorylation enrichment [13]: 0.634
- phosphorylation enrichment [14]: 0.466
- phosphorylation enrichment [15]: 0.762
- phosphorylation enrichment [16]: 0.478

Sequence: RRSQSYIPTSG [PLEKHA2_Y185]
- SH2 binding enrichment [1]: 0.529
- SH2 binding enrichment [2]: 0.941
- SH2 binding enrichment [3]: 0.85
- phosphorylation enrichment [4]: 0.729
- phosphorylation enrichment [5]: 0.663
- phosphorylation enrichment [6]: 0.615
- phosphorylation enrichment [7]: 0.649
- phosphorylation enrichment [8]: 0.59
- phosphorylation enrichment [9]: 0.497
- phosphorylation enrichment [10]: 0.682
- phosphorylation enrichment [11]: 0.372
- phosphorylation enrichment [12]: 0.354
- phosphorylation enrichment [13]: 0.455
- phosphorylation enrichment [14]: 0.707
- phosphorylation enrichment [15]: 0.709
- phosphorylation enrichment [16]: 0.473

Sequence: VNTTLYEKFTF [TEK_Y1108_YF]
- SH2 binding enrichment [1]: 0.882
- SH2 binding enrichment [2]: 0.95
- SH2 binding enrichment [3]: 0.927
- phosphorylation enrichment [4]: 0.748
- phosphorylation enrichment [5]: 0.886
- phosphorylation enrichment [6]: 0.456
- phosphorylation enrichment [7]: 0.891
- phosphorylation enrichment [8]: 4.71
- phosphorylation enrichment [9]: 0.976
- phosphorylation enrichment [10]: 2.89
- phosphorylation enrichment [11]: 1.1
- phosphorylation enrichment [12]: 8.38
- phosphorylation enrichment [13]: 0.677
- phosphorylation enrichment [14]: 2.48
- phosphorylation enrichment [15]: 0.989
- phosphorylation enrichment [16]: 4.13

Sequence: NIEPVYLNMLL [ATR_Y317]
- SH2 binding enrichment [1]: 0.402
- SH2 binding enrichment [2]: 0.836
- SH2 binding enrichment [3]: 1.04
- phosphorylation enrichment [4]: 5.01
- phosphorylation enrichment [5]: 1.58
- phosphorylation enrichment [6]: 8.65
- phosphorylation enrichment [7]: 1.36
- phosphorylation enrichment [8]: 3.46
- phosphorylation enrichment [9]: 4.49
- phosphorylation enrichment [10]: 6.42
- phosphorylation enrichment [11]: 6.94
- phosphorylation enrichment [12]: 10.5
- phosphorylation enrichment [13]: 5.81
- phosphorylation enrichment [14]: 6.88
- phosphorylation enrichment [15]: 1.48
- phosphorylation enrichment [16]: 5.48

Sequence: VSRGRYRPEEC [B4GALT4_Y113_Q116E]
- SH2 binding enrichment [1]: 0.428
- SH2 binding enrichment [2]: 0.699
- SH2 binding enrichment [3]: 0.465
- phosphorylation enrichment [4]: 0.51
- phosphorylation enrichment [5]: 0.692
- phosphorylation enrichment [6]: 0.439
- phosphorylation enrichment [7]: 0.561
- phosphorylation enrichment [8]: 0.614
- phosphorylation enrichment [9]: 0.568
- phosphorylation enrichment [10]: 0.562
- phosphorylation enrichment [11]: 0.443
- phosphorylation enrichment [12]: 0.52
- phosphorylation enrichment [13]: 0.524
- phosphorylation enrichment [14]: 0.472
- phosphorylation enrichment [15]: 0.512
- phosphorylation enrichment [16]: 0.522

Sequence: NKEPRYQEDPP [TJP2_Y479]
- SH2 binding enrichment [1]: 0.78
- SH2 binding enrichment [2]: 1.43
- SH2 binding enrichment [3]: 0.822
- phosphorylation enrichment [4]: 0.607
- phosphorylation enrichment [5]: 0.852
- phosphorylation enrichment [6]: 0.625
- phosphorylation enrichment [7]: 0.832
- phosphorylation enrichment [8]: 0.508
- phosphorylation enrichment [9]: 0.48
- phosphorylation enrichment [10]: 0.461
- phosphorylation enrichment [11]: 0.525
- phosphorylation enrichment [12]: 0.59
- phosphorylation enrichment [13]: 0.823
- phosphorylation enrichment [14]: 0.693
- phosphorylation enrichment [15]: 0.999
- phosphorylation enrichment [16]: 0.546

Sequence: LSQAKYQIRYR [CRLF1_Y272_F268S]
- SH2 binding enrichment [1]: 0.368
- SH2 binding enrichment [2]: 1.29
- SH2 binding enrichment [3]: 0.558
- phosphorylation enrichment [4]: 0.764
- phosphorylation enrichment [5]: 0.617
- phosphorylation enrichment [6]: 0.638
- phosphorylation enrichment [7]: 0.711
- phosphorylation enrichment [8]: 0.479
- phosphorylation enrichment [9]: 0.592
- phosphorylation enrichment [10]: 0.387
- phosphorylation enrichment [11]: 0.506
- phosphorylation enrichment [12]: 0.467
- phosphorylation enrichment [13]: 0.603
- phosphorylation enrichment [14]: 0.776
- phosphorylation enrichment [15]: 0.768
- phosphorylation enrichment [16]: 0.667

Sequence: EKQARYEIVVE [CDH5_Y223]
- SH2 binding enrichment [1]: 11
- SH2 binding enrichment [2]: 0.856
- SH2 binding enrichment [3]: 0.666
- phosphorylation enrichment [4]: 0.57
- phosphorylation enrichment [5]: 0.909
- phosphorylation enrichment [6]: 0.392
- phosphorylation enrichment [7]: 0.846
- phosphorylation enrichment [8]: 0.484
- phosphorylation enrichment [9]: 0.613
- phosphorylation enrichment [10]: 0.477
- phosphorylation enrichment [11]: 0.65
- phosphorylation enrichment [12]: 0.466
- phosphorylation enrichment [13]: 0.532
- phosphorylation enrichment [14]: 0.433
- phosphorylation enrichment [15]: 0.852
- phosphorylation enrichment [16]: 0.486

Sequence: DGTIVCTGLET [USH2A_Y4487_Y4487C]
- SH2 binding enrichment [1]: 0.489
- SH2 binding enrichment [2]: 0.936
- SH2 binding enrichment [3]: 0.632
- phosphorylation enrichment [4]: 0.558
- phosphorylation enrichment [5]: 0.955
- phosphorylation enrichment [6]: 0.509
- phosphorylation enrichment [7]: 1.06
- phosphorylation enrichment [8]: 0.47
- phosphorylation enrichment [9]: 0.837
- phosphorylation enrichment [10]: 0.499
- phosphorylation enrichment [11]: 0.533
- phosphorylation enrichment [12]: 0.582
- phosphorylation enrichment [13]: 0.636
- phosphorylation enrichment [14]: 0.454
- phosphorylation enrichment [15]: 1.12
- phosphorylation enrichment [16]: 0.438

Sequence: KLIMEYLPFGS [JAK2_Y931_YF]
- SH2 binding enrichment [1]: 0.714
- SH2 binding enrichment [2]: 1
- SH2 binding enrichment [3]: 0.788
- phosphorylation enrichment [4]: 0.571
- phosphorylation enrichment [5]: 0.868
- phosphorylation enrichment [6]: 0.468
- phosphorylation enrichment [7]: 0.965
- phosphorylation enrichment [8]: 0.372
- phosphorylation enrichment [9]: 0.734
- phosphorylation enrichment [10]: 0.558
- phosphorylation enrichment [11]: 0.49
- phosphorylation enrichment [12]: 0.456
- phosphorylation enrichment [13]: 0.595
- phosphorylation enrichment [14]: 0.401
- phosphorylation enrichment [15]: 1.09
- phosphorylation enrichment [16]: 0.424

Sequence: GESLTYASTTF [C1orf162_Y120]
- SH2 binding enrichment [1]: 0.649
- SH2 binding enrichment [2]: 0.752
- SH2 binding enrichment [3]: 0.679
- phosphorylation enrichment [4]: 0.644
- phosphorylation enrichment [5]: 0.592
- phosphorylation enrichment [6]: 0.401
- phosphorylation enrichment [7]: 0.505
- phosphorylation enrichment [8]: 0.574
- phosphorylation enrichment [9]: 1.19
- phosphorylation enrichment [10]: 2.63
- phosphorylation enrichment [11]: 0.5
- phosphorylation enrichment [12]: 0.52
- phosphorylation enrichment [13]: 0.408
- phosphorylation enrichment [14]: 2.25
- phosphorylation enrichment [15]: 0.551
- phosphorylation enrichment [16]: 2.68

Sequence: ERDYTYDELLN [EIF2S2_Y176_E177D]
- SH2 binding enrichment [1]: 1.83
- SH2 binding enrichment [2]: 0.786
- SH2 binding enrichment [3]: 0.688
- phosphorylation enrichment [4]: 0.682
- phosphorylation enrichment [5]: 1.17
- phosphorylation enrichment [6]: 0.558
- phosphorylation enrichment [7]: 1.21
- phosphorylation enrichment [8]: 0.498
- phosphorylation enrichment [9]: 0.887
- phosphorylation enrichment [10]: 0.661
- phosphorylation enrichment [11]: 0.742
- phosphorylation enrichment [12]: 0.506
- phosphorylation enrichment [13]: 0.791
- phosphorylation enrichment [14]: 0.631
- phosphorylation enrichment [15]: 1.27
- phosphorylation enrichment [16]: 1.04

Sequence: QNTGVYYDLYG [PTPN11_Y62_D61V]
- SH2 binding enrichment [1]: 4.65
- SH2 binding enrichment [2]: 1.38
- SH2 binding enrichment [3]: 0.892
- phosphorylation enrichment [4]: 5.61
- phosphorylation enrichment [5]: 2
- phosphorylation enrichment [6]: 16.3
- phosphorylation enrichment [7]: 2.61
- phosphorylation enrichment [8]: 10.9
- phosphorylation enrichment [9]: 1.23
- phosphorylation enrichment [10]: 7.18
- phosphorylation enrichment [11]: 6.99
- phosphorylation enrichment [12]: 3.07
- phosphorylation enrichment [13]: 14.5
- phosphorylation enrichment [14]: 8.43
- phosphorylation enrichment [15]: 1.49
- phosphorylation enrichment [16]: 7.99

Sequence: MPQNEYIELHC [NSA2_Y6_R11C]
- SH2 binding enrichment [1]: 0.683
- SH2 binding enrichment [2]: 1.06
- SH2 binding enrichment [3]: 0.782
- phosphorylation enrichment [4]: 0.862
- phosphorylation enrichment [5]: 1.39
- phosphorylation enrichment [6]: 3.95
- phosphorylation enrichment [7]: 0.939
- phosphorylation enrichment [8]: 0.478
- phosphorylation enrichment [9]: 0.658
- phosphorylation enrichment [10]: 0.625
- phosphorylation enrichment [11]: 1.2
- phosphorylation enrichment [12]: 0.557
- phosphorylation enrichment [13]: 2.58
- phosphorylation enrichment [14]: 0.615
- phosphorylation enrichment [15]: 1.2
- phosphorylation enrichment [16]: 0.626
